Measured values as given in the DeepSol protein solubility set.

Assay: soluble on expression in E. coli; label from the status in PepcDB or PDB records

Sequence	soluble on expression in E. coli
MSAVGEFPGSLGAKVFRLNGGLPGAKVGKNTGTSVKFGESSTQALIRAAYRQVFGRDLYEGQRLSVAEIQLENGDISVREFIKRLAKSELFLKLYWAPHYVCKAIEYMHRRLLGRPTYGRQEMNQYFDIASKQGFYAVVEAMIDSKEYSDAFGEDTVPYERYLEHHHHHH	soluble
MGSDKIHHHHHHMEVKPFRPLIYRKEIDGMISPPFDAITPKQEIELKRNPYNITYLTLPKGRDGVSHARMIMENWIENGVLLRAERDCIIVLKQIFSANSRRITRYGIIARVRVFPENGDVIPHERTFDEFVRDREILMEGIGSQLEPIFLVTLKNELPQYLKIITENMKEDNRYFGPENVENYVYYIYDHKEIQKISNILRNDIAIVADGHHRLQATKNIASRQSGLAREFWSYAMSYVTSIHDEGVLIGGVHRVISSRFRFDADRASKYFYVDQCDTIAGNDPVIYDGRFYCIRPRENVYDNIIDSLNDFLFSKTIGMSTIDLERDVIYTHDYAEVVNLVNSGSFSFGVIMPDWDKAHLVELLLTRKILPQKSTYFYPKIPSGISIDSISEFIVT	not soluble
MSNAREIRSKVQSVKNTQKITGAMELVAASKMRGAIVKMNNVRPYVESANTIIKNVTAASIDYPNPYLFDRDVKRVGYIVISTDRGLCGGLNINLFKHVLKEIKNNIEDRVGVDVCVIGSKAENFFAKLKDVNIVATAHYNDKDKEGSIRAIGGAVKVMLDKFTAGEIDRLYMSSNQFVSTIKQRPRLQTLLPIQDIFSAEEIKANKEKATKGHWDYIYERDIEEVLNALFIRYIEAQVRGAILENAACEQAARMMAMKNATDNASDIIDQLKLDYNKVRQAMITQELAEICSGAAAV	not soluble
MGSDKIHHHHHHMIDLHCHILSGIDDGAQTITDSLAMAQQAVAEGIHTIVATPHHQNGKYVNERASIIHQVKQLNDELQQHEIPLKVLPGQEVRLYGGLLEDYEAGKIVTLNETNKYIFIEFPSNHVPRYTEQLFYELRVKGMIPIIVHPERNAELIERPDKLYNLVNKGALTQVTAGSLLGKFGKKIKRFSLQLVEHNLTHMIASDAHNTTSRGFHLEESYELIEKEFGTTVMNDLRENPYLIISGKAIYKEDPEQIRRKKLFGIF	not soluble
AMKPAQKGKTFSNVEIFDPPTNYRDPQVLYARPLELSDGTLLGTWENYSPEPPNVWFPIVKSKDGGKTWKEISKVKDTQNNWGLRYQPQLYELPRAFGKYPKGTVLCSGSSIPSDLSETLIEVYASRDKGYTWEFVSHVALGGEALPNPGLTPVWEPFLMTYKEKLILYYSDQRDNATHSQKLVHQTTTDLKKWSKVVDDTKYADYYARPGMPTVAKLPNNEYIYVYEYGGGPNPPAGSDYWFPVYYRLSKDPQKFLNKAHHQIVSNDGTTPAGSPYVVWTPYGGKNGTIVVSCGTRSEIFTNQALGDASAWKKWDVPQPTAYTRSLLTFQKDPDLLMIMGAGILPPAGGKNTVSASVVRLSEVMKS	soluble
MMKEQNIPQDSLIAGYLPADYCDSFSRNVVSEKAITSDEFFDMAFNHSPGWVNGLMKLRNAIVKPLGLEVGMRFADTICEQNAQEVVFGMPDKHLTFHASLWCGEKEPGGQTFTITTVVKFNNRLGRLYFFFIRPFHKVIIRSMLKRVAKRLK	not soluble
MRPIEEFVYVGNQVIVPDQASLMRCYYPIIGGEGYALYQYFVAFYDNGNHRHKFATILNHLNFGMQPLQESLAVLTAVDLLAFYHSPQGIYVVELKSPLSIEQFLKHAVYSSLLEQKIGEPAVDALKPTSLHGLQDLSKRFSDVFTDERLAQKSVSEIKPKNSFDLISFRNRMQADGLVFTDEKTDVPEIYKLSETYDMNWYDTYLLSKKTAVNHRIIVKRMQVQLEQAQAQKLGGDSALTETEKKILKAVKSGKPVDYLQSAKGPGGTVTNSEKKILTDLAQRGFMDEVINLMVAYSLGRTRSTNVNREYISKVANDFDFKKIVTAEQGLLALRSGYDKKSQRAKDDSKKKTNVPSWSDPDYDNQTNQADQAKLDEIRRRALAKLEKG	not soluble
MKINIRDSTMVRPATETPITNLWNSNVDLVIPRFHTPSVYFYRPTGASNFFDPQVMKEALSKALVPFYPMAGRLKRDDDGRIEIDCNGAGVLFVVADTPSVIDDFGDFAPTLNLRQLIPEVDHSAGIHSFPLLVLQVTFFKCGGASLGVGMQHHAADGFSGLHFINTWSDMARGLDLTIPPFIDRTLLRARDPPQPAFHHVEYQPAPSMKIPLDPSKSGPENTTVSIFKLTRDQLVALKAKSKEDGNTVSYSSYEMLAGHVWRSVGKARGLPNDQETKLYIATDGRSRLRPQLPPGYFGNVIFTATPLAVAGDLLSKPTWYAAGQIHDFLVRMDDNYLRSALDYLEMQPDLSALVRGAHTYKCPNLGITSWVRLPIYDADFGWGRPIFMGPGGIPYEGLSFVLPSPTNDGSLSVAIALQSEHMKLFEKFLFEI	soluble
MGSDKIHHHHHHMFRLQFRLFPPLRTAMHILLTALLKCLSLLPLSCLHTLGNRLGHLAFYLLKEDRARIVANMRQAGMNPDPKTVKAVFAETAKGGLELAPAFFRKPEDIETMFKAVHGWEHVQQALDKHEGLLFITPHIGSYDLGGRYISQQLPFPLTAMYKPPKIKAIDKIMQAGRVRGKGKTAPTSIQGVKQIIKALRSGEATIVLPDHVPSPQEGGEGVWVDFFGKPAYTMTLAAKLAHVKGVKTLFFCCERLPGGQGFDLHIRPVQGELNGDKAHDAAVFNRNAEYWIRRFPTQYLFMYNRYKMP	not soluble
AHHHHHHGSRIVAITDIHGRRSMVEKLVDVVRREDVDVILIAGDITHFSGAEEAERVLSPLLTLEIPLLAVMGNCDGRDVLDFLEERGVSVHDKRVEIKGVGVVGFGGSNITPFSTIWEFSDDVIYSSLIRNYRQGDIVLTHAPPYGTKLDKTHSGIHAGSMGLRKFIEEKQPKLCICGHIHEGRGVEKIGNTIVVNPGPLARGYYAVIEGDSVELLNLKG	soluble
MSLNTLNQDIAFKIFTMFYKVCYGKKKHTYTSFFEKFQICTYNDILLLCDEVAKLFKMENSLENVTLPCKVFGDVHGNLFDLLDFFNLYNWPMHNNKVFLGNLINRGNYSLEVICLLFSLKILFPKHIYLLRGNHEDRLFNYIYGFYKDIEIKMKTNMEYMGIINYQEQVISAHSYELFNRINDVFEFFPLCVLLDKNILCIHGGIGDSVMTISDYQHIRKPILIPQNVDRYSNNKSEHVKKIIIDTLWSDPINYNDELDLQLLKNSSTYDIIPSRRGNITFKFGKHRLNDFLKNNQLKLIIRGHECVQEGYKYSYKRKLLTLFSAKNYCNKYNNNASNAFIVRKNKNIIIFNQILKYQHNCEGHHHHHH	not soluble
MTVERIAEQPLDSELGHFNLITYRDSVEGDVHLALTLGKVCAEEPTLVRVHNMDPLRDLLQVNQPGRWSLRAAMTKVAEAGSGVVLLLGHQIGGDDLLAHVREIASAPAPAPKATTTYSTVGAGSQILRDLGVRKMRLLSAPMRFNAISGFDLEVVEYLPA	soluble
MGSDKIHHHHHHMTKHQNFIETKEYKRFAEFCDACIKYQYIGICYGQPGVGKTLSSRYYTNWNTIEKQVNHRGWEDLASKTTDDILSVNKIFYTAPAEKQTRLSNDLYSISASIDLGQKLHIVNKYGHDHSKHYSDMFKYIDLIIVDEIDRLKVQHLEQLRAIYDEHNLAMIFIGMPGIEKKLSRYPQLYSRIGFAHEFDNLSKDETHHILEYKWQDLGFDLKLEDFTDYEAITTIIKITKGNFRLIHRLFAQIDRIMDINGLDKISTEVVETARDSLVIGIR	not soluble
MGILETLVLKEKINGTEKAVIFRELIKKEMELLNDYCAKNHLFPKDYRIEFCHLHNIKKVNIARLLTILKYYDPRFIEILMSTDPKVRTFIQYFMEFLEKHPYFEDVLEPQNLFGNWDYIRYKLKILFPQLTFEEIDRFKFKRKEFINYVKEKLGEPEELIEDKLNLATWYESVPYLELESEMTPGVHPDPVMTPEEWSFIKRHIKGRKNIIIRDPDTGKEKLVYVEVDIPDEELDKYYKNREGLKKLLMERYNIDESGAEQILRKAGWEATGWHIVPPVHTDVEVVYPEEEKKEEKKVEVKREPFDIMELAKHIRYLGGRELEMLNYYELVHDKVPEIHEKLHMFMRTKRRLLGKLFGIYYTVDPVMAEAILINDPENIELLKSLTISTGLRDKKFSIYDSSKVWNEIKRRVRFIFPEVSEEEIEKFKGKRSEFVTYLAQKLGKPEEYIDERLERAGWLRSEEIPAFIRHVGP	not soluble
